Source: publication PMC3136511

Biological target: Nup145N(443–605) (Saccharomyces cerevisiae) (UniProt P49687)
Assay: SAXS

Nup145N(443–605) (from UniProt P49687 443-605) (domain or fragment)
dimer fraction: 98% | stoichiometry N: 2
